The values below come from patent US20110059095A1 (Regeneron, published 2011).

In assay [1] the target is T1, full length human PAR-2 (human, UniProt P55085 26-397).
T1 construct: overexpressed on HEK293-derived 293/D9 cells; also called 293/D9/hPAR-2rec cells
As to the kind of experiment: MSD cell binding. The procedure:
(§1) HEK293 cells were transfected with an NF-κB-luciferase-IRES-eGFP reporter plasmid. […] A clonal cell line, named D9, having low background levels of luciferase activity and high levels of eGFP when induced with IL-1β was made by a series of successive sorts of cell populations using flow cytometry. The 293/D9 cell line was then separately transfected with human PAR-2 or mouse PAR-2 to create the stable cell lines 293/D9/h PAR-2rec and 293/D9/m PAR-2rec, respectively.
(§2) Cells were plated on MSD high-bind 96 well plates at a density of 4×10⁴ cells/well in PBS and incubated for one hour at room temperature. Cells were then blocked in PBS with 2% BSA and incubated at room temperature for one hour. Anti-PAR-2 antibodies (ranging from 100 nM to 0.098 nM) were serially diluted two-fold in PBS with 0.5% BSA and incubated with the cells for one hour at room temperature followed by washing in PBS with 0.5% BSA. Sulfo-tagged anti-human IgG antibody (MSD) at a concentration of 0.1 μg/ml was then added to the cell/antibody mixture and incubated at room temperature for an additional hour. After another wash, a 1× non-surfactant containing read buffer was added and electro-chemiluminescent signal was read on the MSD Sector Imager. Signal of antibody binding to 293/D9 cells was subtracted from signal to 293/D9/hPAR-2rec or 293/D9/mPAR-2rec cells. Subtracted data were analyzed using a sigmoidal dose-response model in GraphPad Prism and EC₅₀ and Bₘₐₓ values were reported (Table 18). EC₅₀ values are defined as the antibody concentration required to achieve 50% maximal binding (Bₘₐₓ) to cells.

In assay [2] the target is T2, full length mouse PAR-2 (mouse, UniProt P55086 26-399).
T2 construct: also called 293/D9/mPAR-2rec cells
T2 chain: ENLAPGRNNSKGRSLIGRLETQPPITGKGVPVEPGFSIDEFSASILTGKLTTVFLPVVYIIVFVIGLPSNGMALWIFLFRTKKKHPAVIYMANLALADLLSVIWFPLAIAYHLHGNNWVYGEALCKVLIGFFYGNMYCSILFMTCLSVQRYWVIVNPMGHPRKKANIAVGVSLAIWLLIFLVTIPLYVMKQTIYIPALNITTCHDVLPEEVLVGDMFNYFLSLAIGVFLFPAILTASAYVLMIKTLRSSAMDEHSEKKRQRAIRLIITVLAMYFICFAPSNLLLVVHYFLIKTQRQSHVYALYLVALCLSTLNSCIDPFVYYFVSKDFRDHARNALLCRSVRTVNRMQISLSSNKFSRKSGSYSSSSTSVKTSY
As to the kind of experiment: MSD cell binding. The method, then:
as §1, §2

Assay [3] deals with T3, Peptide C (human PAR-2), N-terminal biotinylated (Human).
T3 construct: also called Peptide C N-Term
T3 peptide: Biotin-GGGGSSLIGKV
The assay is described as follows: SPR, peptide immobilized. For orientation: SPR reads the build-up and loss of mass on a sensor chip optically.

For assay [4], the target named is T4, Peptide K (human PAR-1), unbiotinylated (Human).
T4 peptide: ATNATLDPRSFLLRNPND
As to the kind of experiment: SPR, antibody captured.

Assay [5] addresses T5, Peptide L (human PAR-3), unbiotinylated (Human).
T5 peptide: DTNNLAKPTLPIKTFRGA
As to the kind of experiment: SPR, antibody captured.

The target of assay [6] is T6, Peptide M (human PAR-4), unbiotinylated (Human).
T6 peptide: ESGSTGGGDDSTPSILPAP
The assay is described as follows: SPR, antibody captured.

The target of assay [7] is T7, Peptide B (human PAR-2), unbiotinylated (Human).
T7 construct: also called Peptide B No Biotin
T7 peptide: SLIGKVDGTSHVTG
As to the kind of experiment: SPR, antibody captured. The method, then:
Equilibrium dissociation constants (KD values) for antigen binding to selected purified PAR-2 antibodies were determined by surface kinetics using a real-time surface plasmon resonance biosensor assay. Antibody was captured on either a rabbit anti-mouse IgG polyclonal antibody (GE Healthcare, Piscataway, N.J.) surface or a goat anti-human IgG polyclonal antibody (Jackson Immuno Research Lab, West Grove, Pa.) surface created through direct amine chemical coupling to a BIACORE™ CM5 sensor chip to form a captured antibody surface. […] Antigen-antibody binding and dissociation were monitored in real time at room temperature. Kinetic analysis was performed to calculate KD and half-life of antigen/antibody complex dissociation (Table 10). For those antibodies where no T_{1/2} value is shown, steady state analysis was used to calculate the KD value. NB: no binding observed under current experimental conditions. ND: not determined.

The target in assay [8] is T8, Peptide A (human PAR-2), C-terminal biotinylated (Human, C-terminal biotin via G4S linker).
T8 construct: also called Peptide A C-Term
The assay is described as follows: SPR, peptide immobilized. The method, then: (§3) In another series of experiments, equilibrium dissociation constants (KD values) for purified antibody binding to selected biotinylated and unbiotinylated forms of PAR-2 peptides were determined by surface kinetics using a real-time surface plasmon resonance biosensor assay. Neutravidin (Pierce, Rockford, Ill.) was covalently coupled to the surface of a Biacore™ C1 chip or CM5 chip using amine coupling chemistry. Biotinylated (N-Term or C-Term) PAR-2 peptides (Peptides A and B) were immobilized on the surface via the high affinity binding interaction between biotin and the amine coupled Neutravidin.
(§4) In a first experiment using this format, varying concentrations (ranging from 5 to 100 μg/ml) of purified antibody were injected at a rate of 50 μl/min over a surface coated with immobilized peptide at low-density (<1RU) for 300 seconds. Antibody-peptide binding and dissociation was monitored in real time 25° C.

Assay [9] concerns the target T9, Peptide B (human PAR-2), C-terminal biotinylated (Human, not fully specified).
T9 construct: also called Peptide B C-Term
T9 peptide: SLIGKVDGTSHVTGGGGGS-biotin
The assay is described as follows: SPR, peptide immobilized. The method, then:
as §3, §4

The target in assay [10] is T10, Peptide A (human PAR-2), N-terminal biotinylated (Human, N-terminal biotin via G4S linker).
T10 construct: also called Peptide A N-Term
T10 peptide: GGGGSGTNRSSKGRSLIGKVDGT
As to the kind of experiment: SPR, peptide immobilized.

The target of assay [11] is T11, Peptide B (human PAR-2), N-terminal biotinylated (Human).
T11 construct: also called Peptide B N-Term
T11 peptide: Biotin-GGGGSSLIGKVDGTSHVTG
As to the kind of experiment: SPR, peptide immobilized.

For assay [12], the target named is T12, Peptide E (mouse PAR-2), N-terminal biotinylated (Mouse (Mus musculus), N-terminal biotin via G4S linker).
T12 construct: also called Peptide E N-Term
T12 peptide: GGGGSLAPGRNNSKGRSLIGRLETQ
As to the kind of experiment: SPR, peptide immobilized.

Assay [13] addresses T13, Peptide G (rat PAR-2), N-terminal biotinylated (Rat (Rattus norvegicus), N-terminal biotin via G4S linker).
T13 construct: also called Peptide G N-Term
T13 peptide: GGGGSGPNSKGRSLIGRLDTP
As to the kind of experiment: SPR, peptide immobilized.

For assay [14], the target named is T14, Peptide F (monkey PAR-2), N-terminal biotinylated (Monkey (Macaca mulatta), N-terminal biotin via G4S linker).
T14 construct: also called Peptide F N-Term
The assay is described as follows: SPR, peptide immobilized; SPR, biotinylated peptide on the chip, bivalent antibody in solution.

Where no end group is shown, it is not given here. The star is where a group is joined. Biotin = O=C1N[C@H]2[C@H](CS[C@H]2CCCCC(=O)*)N1

T14 sequence (peptide, as listed by the source): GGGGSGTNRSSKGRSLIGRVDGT
T1 sequence (P55085 26-397 G138A limits assumed): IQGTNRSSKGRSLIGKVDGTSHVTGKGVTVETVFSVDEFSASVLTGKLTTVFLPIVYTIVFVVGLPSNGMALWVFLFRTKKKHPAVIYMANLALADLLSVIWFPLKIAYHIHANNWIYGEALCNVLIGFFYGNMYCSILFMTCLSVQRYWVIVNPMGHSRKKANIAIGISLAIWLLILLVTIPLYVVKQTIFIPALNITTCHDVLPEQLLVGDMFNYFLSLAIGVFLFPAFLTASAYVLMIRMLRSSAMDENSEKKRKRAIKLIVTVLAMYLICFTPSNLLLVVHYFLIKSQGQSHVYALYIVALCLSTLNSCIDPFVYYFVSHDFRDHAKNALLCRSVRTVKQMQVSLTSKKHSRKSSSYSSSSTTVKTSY

B1: H4H590N (antibody, human IgG4, V domains shown)
VH: EVQLVESGGGLVQPGRSLRLSCAASGFTFDDYAMHWVRQAPGKGLEWVSGITWNSGTMAYADSVKGRFTISRDNAKNSLYLQMNSLRAEDTALYYCAKENWAFDYWGQGTLVTVSS
VL: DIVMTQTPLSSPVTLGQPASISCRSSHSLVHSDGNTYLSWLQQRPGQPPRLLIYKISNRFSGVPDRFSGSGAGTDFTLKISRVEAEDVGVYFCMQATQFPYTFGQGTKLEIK
notes: cloned onto human IgG4; also called H1M590N variable regions
Take B1: the Bmax in assay [1] was 6550 MSD Unit; in assay [2], 13300 MSD Unit. In addition, the values for the EC50 in assay [1] and in [2] were 9.72 nM and 5.76 nM, respectively. Besides, the binding result in assay [3], in [4], in assay [5], in assay [6], in assay [7] and in assay [9] was “no binding” each time. For the same molecule, the binding result in assay [11] is recorded as “no binding”. The Kd was determined as 3.56 nM in [8]; 1.52 nM in assay [10]; 1.28 nM in assay [12]; 2.94 nM in [13]; 1.84 nM in assay [14]. Further, the T1/2 in assay [8] amounted to 3 min; in assay [10] it was 3 min; in [12], 7 min; in [13] it was 2 min; in assay [14], 2 min.

The term EC50 denotes the midpoint of the concentration-response curve.
